Tests used:
Test in all cases: two-hybrid library CCmax;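 also: natural log of median RNA to DNA barcode read ratio; higher means stronger binding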
[1] = molecular target: T1, O2-AA; conditions: mean of both orientations
T1 chain: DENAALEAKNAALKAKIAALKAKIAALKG

[2] = molecular target: T2, 4H3591-AA; conditions: mean of both orientations
T2 chain: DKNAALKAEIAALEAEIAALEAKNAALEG

[3] = molecular target: T3, 4H2742-AA; conditions: mean of both orientations
T3 chain: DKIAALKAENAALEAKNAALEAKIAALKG

[4] = molecular target: T4, 4H1064-AA
T4 chain: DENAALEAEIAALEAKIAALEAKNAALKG

[5] = molecular target: T5, 4H3102-AA; conditions: mean of both orientations
T5 chain: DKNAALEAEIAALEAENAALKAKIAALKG

[6] = molecular target: T6, 4H2248-AA; conditions: mean of both orientations
T6 chain: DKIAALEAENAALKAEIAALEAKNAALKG

[7] = molecular target: T7, 4H1854-AA; conditions: mean of both orientations
T7 chain: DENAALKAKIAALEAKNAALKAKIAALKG

[8] = molecular target: T8, 4H391-AA; conditions: mean of both orientations
T8 chain: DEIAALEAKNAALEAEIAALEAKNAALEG

[9] = molecular target: T9, 4H2873-AA; conditions: mean of both orientations
T9 chain: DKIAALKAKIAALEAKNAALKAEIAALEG

[10] = molecular target: T10, 4H55-AA; conditions: mean of both orientations
T10 chain: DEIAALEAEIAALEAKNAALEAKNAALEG

[11] = molecular target: T11, 4H1985-AA; conditions: mean of both orientations
T11 chain: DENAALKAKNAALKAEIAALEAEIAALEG

[12] = molecular target: T12, 4H2238-AA; conditions: mean of both orientations
T12 chain: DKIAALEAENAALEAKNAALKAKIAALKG

[13] = molecular target: T13, 4H1405-AA; conditions: mean of both orientations
T13 chain: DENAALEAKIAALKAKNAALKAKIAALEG

[14] = molecular target: T14, 4H369-AA; conditions: mean of both orientations
T14 chain: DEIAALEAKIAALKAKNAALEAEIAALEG

[15] = molecular target: T15, 4H3134-AA; conditions: mean of both orientations
T15 chain: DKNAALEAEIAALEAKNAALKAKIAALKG

[16] = molecular target: T16, 4H3777-AA; conditions: mean of both orientations
T16 chain: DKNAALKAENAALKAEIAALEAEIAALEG

[17] = molecular target: T17, 4H3619-AA; conditions: mean of both orientations
T17 chain: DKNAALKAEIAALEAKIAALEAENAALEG

[18] = molecular target: T18, 4H3094-AA; conditions: mean of both orientations
T18 chain: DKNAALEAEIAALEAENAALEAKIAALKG

[19] = molecular target: T19, 4H3915-AA; conditions: mean of both orientations
T19 chain: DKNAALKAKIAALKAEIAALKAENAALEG

[20] = molecular target: T20, 4H2760-AA; conditions: mean of both orientations
T20 chain: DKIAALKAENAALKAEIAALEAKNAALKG

[21] = molecular target: T21, P6-AA-12HAA-T
T21 chain: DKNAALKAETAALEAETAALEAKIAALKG

[22] = molecular target: T22, P5-AA-12HGe-Q; conditions: mean of both orientations
T22 chain: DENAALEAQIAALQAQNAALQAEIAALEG

[23] = molecular target: T23, P5-AA-1HAA-E; conditions: mean of both orientations
T23 chain: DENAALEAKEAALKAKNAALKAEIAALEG

[24] = molecular target: T24, P5-AA-1HAA-T
T24 chain: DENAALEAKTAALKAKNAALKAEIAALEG

[25] = molecular target: T25, P5-AA-1HGe-Q; conditions: mean of both orientations
T25 chain: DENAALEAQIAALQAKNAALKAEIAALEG

[26] = molecular target: T26, P5-AA-1HAA-L; conditions: mean of both orientations
T26 chain: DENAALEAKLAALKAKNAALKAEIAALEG

[27] = molecular target: T27, P5-AA-12HGe-A; conditions: mean of both orientations
T27 chain: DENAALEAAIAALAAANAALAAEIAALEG

[28] = molecular target: T28, P5-AA-12HGe-M; conditions: mean of both orientations
T28 chain: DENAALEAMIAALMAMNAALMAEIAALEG

[29] = molecular target: T29, P6-AA-1HAA-E; conditions: mean of both orientations
T29 chain: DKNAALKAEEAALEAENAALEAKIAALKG

[30] = molecular target: T30, P6-AA-1HGe-T; conditions: mean of both orientations
T30 chain: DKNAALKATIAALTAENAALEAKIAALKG

[31] = molecular target: T31, P6-AA-1HGe-A; conditions: mean of both orientations
T31 chain: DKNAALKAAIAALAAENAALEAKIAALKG

[32] = molecular target: T32, P6-AA-12HGe-A; conditions: mean of both orientations
T32 chain: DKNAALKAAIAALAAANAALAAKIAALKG

[33] = molecular target: T33, P6-AA-1HAA-K; conditions: mean of both orientations
T33 chain: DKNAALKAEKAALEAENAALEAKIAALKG

[34] = molecular target: T34, P6-AA-1HGe-M
T34 chain: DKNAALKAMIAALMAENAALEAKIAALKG

[35] = molecular target: T35, P6-AA-1HAA-L; conditions: mean of both orientations
T35 chain: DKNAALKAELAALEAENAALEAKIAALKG

[36] = molecular target: T36, APC5383-AA; conditions: mean of both orientations
T36 chain: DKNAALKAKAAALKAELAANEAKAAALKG

[37] = molecular target: T37, APC1434-AA; conditions: mean of both orientations
T37 chain: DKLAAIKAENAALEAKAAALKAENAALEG

[38] = molecular target: T38, APC4436-AA; conditions: mean of both orientations
T38 chain: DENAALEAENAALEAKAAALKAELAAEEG

[39] = molecular target: T39, 4H2721-AA; conditions: mean of both orientations
T39 chain: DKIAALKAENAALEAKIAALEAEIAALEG

[40] = molecular target: T40, 4H140-AA; conditions: mean of both orientations
T40 chain: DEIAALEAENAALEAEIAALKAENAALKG

[41] = molecular target: T41, 4H3365-AA; conditions: mean of both orientations
T41 chain: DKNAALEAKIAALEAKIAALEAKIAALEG

[42] = molecular target: T42, 4H3705-AA; conditions: mean of both orientations
T42 chain: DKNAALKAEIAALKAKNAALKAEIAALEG

DEIAALEAENAALEAKIAALKAENAALEG [4H171-AA]
interaction score [1]: -1.24

DENAALEAEIAALEAKIAALEAKNAALKG [4H1064-AA]
interaction score [2]: 0.232 | interaction score [3]: -1.78 | interaction score [4]: 0.0437 | interaction score [5]: -1.27 | interaction score [6]: -1.34 | interaction score [7]: -1.4 | interaction score [8]: -1.37

DENAALEAKIAALKAEIAALEAKIAALKG [4H1350-AA]
interaction score [9]: 1.38 | interaction score [10]: -1.11 | interaction score [11]: 0.316 | interaction score [12]: -1.14 | interaction score [13]: -0.893 | interaction score [14]: 0.227 | interaction score [15]: 0.186

DEIAALEAENAALKAKNAALKAEIAALEG [4H249-AA]
interaction score [16]: -0.457 | interaction score [17]: -1.97 | interaction score [18]: -0.0288 | interaction score [19]: -0.705 | interaction score [20]: 1.68

DENAALEAKIAALKAKIAALKAEIAALEG [4H1385-AA]
interaction score [21]: 1.61

DKNAALKAEIAALEAENAALEAKIAALKG [4H3606-AA]
interaction score [22]: 1.98 | interaction score [23]: 1.24 | interaction score [24]: 1.75 | interaction score [25]: 2.38 | interaction score [26]: 2.39 | interaction score [27]: 0.833 | interaction score [28]: 1.77

DENAALEAKIAALKAKNAALKAEIAALEG [4H1401-AA]
interaction score [29]: 2.01 | interaction score [30]: 2.05 | interaction score [31]: 2.14 | interaction score [32]: -0.0521 | interaction score [33]: 2.04 | interaction score [34]: 2.24 | interaction score [35]: 2.1

DENAALKAKIAALEAKNAALEAKIAALEG [4H1845-AA]
interaction score [36]: -1.57 | interaction score [37]: -1.56 | interaction score [38]: -1.83

DENAALEAENAALKAKIAALKAEIAALEG [4H1257-AA]
interaction score [39]: 1.02 | interaction score [40]: -1.43 | interaction score [41]: -1.46 | interaction score [42]: -1.52
